Laboratory results from patent US20130071366A1 (CANCER RESEARCH TECHNOLOGY, published 2013).
Residue numbers refer to the chain shown, from its start. Names and notes keep the numbering of the source. Like-named read-outs stand apart in the source and are kept apart here.

B1: IGF2R domain 11, wild type, expressed in Pichia pastoris with C-terminal His6 tag (receptor)
chain: NEHDDCQVTNPSTGHLFDLSSLSGRAGFTAAYSEKGLVYMSICGENENCPPGVGACFGQTRISVGKANKRLRYVDQVLQLVYKDGSPCPSKSGLSYKSVISFVCRPEAGPTNRPMLISLDKQTCTLFFSWHTPLACEQATHHHHHH
notes: Alpha-factor signal is cleaved during secretion; soluble 17 kDa protein; also called WT; wild type domain 11
B2: IGF2R domain 11 I1572A (null mutant) (receptor)
chain: B1 chain with I62A
notes: Secreted from Pichia pastoris
B3: IGF2R domain 11 S1543A (receptor)
chain: B1 chain with S33A
notes: Secreted from Pichia pastoris
B4: IGF2R domain 11 with H at position 1544 (receptor)
chain: B1 chain with E34H
notes: Secreted from Pichia pastoris; also called E1544H
B5: IGF2R domain 11 with G at position 1544 (receptor)
chain: B1 chain with E34G
notes: Secreted from Pichia pastoris; also called E1544G
B6: IGF2R domain 11 with Q at position 1544 (receptor)
chain: B1 chain with E34Q
notes: Secreted from Pichia pastoris; also called E1544Q
B7: IGF2R domain 11 E1544V (receptor)
chain: B1 chain with E34V
notes: Secreted from Pichia pastoris
B8: IGF2R domain 11 with L at position 1544 (receptor)
chain: B1 chain with E34L
notes: Secreted from Pichia pastoris; also called E1544L
B9: IGF2R domain 11 with R at position 1544 (receptor)
chain: B1 chain with E34R
notes: Secreted from Pichia pastoris; also called E1544R
B10: IGF2R domain 11 with P at position 1544 (receptor)
chain: B1 chain with E34P
notes: Secreted from Pichia pastoris; also called E1544P
B11: IGF2R domain 11 Q1569A (receptor)
chain: B1 chain with Q59A
notes: Secreted from Pichia pastoris
B12: IGF2R domain 11 E1544A (receptor)
chain: B1 chain with E34A
notes: Secreted from Pichia pastoris
B13: IGF2R domain 11 with F at position 1544 (receptor)
chain: B1 chain with E34F
notes: Secreted from Pichia pastoris; also called E1544F
B14: IGF2R domain 11 E1544K (enhanced mutant) (receptor)
chain: B1 chain with E34K
notes: Secreted from Pichia pastoris
B15: IGF2R domain 11 G1619R (common human polymorphism) (receptor)
chain: B1 chain with G109R
notes: Secreted from Pichia pastoris
B16: IGF2R domain 11 with Y at position 1544 (receptor)
chain: B1 chain with E34Y
notes: Secreted from Pichia pastoris; also called E1544Y
B17: IGF2R domain 11 with I at position 1544 (receptor)
chain: B1 chain with E34I
notes: Secreted from Pichia pastoris; also called E1544I
B18: IGF2R domain 11 Y1542A (receptor)
chain: B1 chain with Y32A
notes: Secreted from Pichia pastoris
B19: IGF2R domain 11 T1570A (receptor)
chain: B1 chain with T60A
notes: Secreted from Pichia pastoris
B20: IGF2R domain 11 with M at position 1544 (receptor)
chain: B1 chain with E34M
notes: Secreted from Pichia pastoris; also called E1544M
B21: IGF2R domain 11 with T at position 1544 (receptor)
chain: B1 chain with E34T
notes: Secreted from Pichia pastoris; also called E1544T
B22: IGF2R domain 11 with D at position 1544 (receptor)
chain: B1 chain with E34D
notes: Secreted from Pichia pastoris; also called E1544D
B23: IGF2R domain 11 S1596A (receptor)
chain: B1 chain with S86A
notes: Secreted from Pichia pastoris
B24: IGF2R domain 11 with S at position 1544 (receptor)
chain: B1 chain with E34S
notes: Secreted from Pichia pastoris; also called E1544S
B25: IGF2R domain 11 with N at position 1544 (receptor)
chain: B1 chain with E34N
notes: Secreted from Pichia pastoris; also called E1544N
B26: IGF2R domain 11 K1545A (receptor)
chain: B1 chain with K35A
notes: Secreted from Pichia pastoris
B27: IGF2R domain 11 with W at position 1544 (receptor)
chain: B1 chain with E34W
notes: Secreted from Pichia pastoris; also called E1544W

Assays:
[1] = target: T1, Insulin-like Growth Factor II (IGF-II), recombinant human (human, UniProt P01344 25-91, biotinyl group (site not stated) when immobilised for SPR; not biotinylated as SPR analyte or in ITC); assay: SPR, steady-state KD relative to wild type domain 11
T1 construct: mature; Bought as Biotinyl-IGF-II from GroPep for immobilisation on streptavidin chips; also called IGF2; Biotinyl-IGF-II
T1 sequence (P01344 25-91): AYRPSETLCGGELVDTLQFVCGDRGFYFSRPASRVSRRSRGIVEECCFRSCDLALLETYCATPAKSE
Procedure: (§1) Kinetic analysis by Surface Plasmon Resonance (SPR) was conducted on a BIAcore 3000 biosensor (BIAcore, Uppsala, Sweden) at 25° C. in HBS-EP (10 mM HEPES, pH 7.4, 150 mM NaCl, 3 mM EDTA, 0.005% surfactant P20) at a flow rate of 40 μl/min. […] Kinetic experiments consisted of a two minute injection of analyte followed by a 100s dissociation phase in running buffer, after which the binding surface was regenerated with a 2 minute injection of 2 M MgCl₂. A blank flow cell was used for in-line reference subtraction of changes due to differences in refractive index of running buffer versus sample and a buffer-only injection was used to subtract instrument noise and drift. Injections were performed in duplicate for each concentration and in a randomised order. Kinetic parameters were determined by global fitting of sensorgrams to a two-state (conformational change) binding model using BIAevaluation software version 4.0.1. In all cases the minor component made an insignificant contribution to the overall affinity and as such only the kinetic parameters of the major binding component were used. For each interaction the dissociation affinity constant (KD) was also calculated by fitting of the response of each concentration at equilibrium to a steady-state affinity model using BIAevaluation.

[2] = target: T1, Insulin-like Growth Factor II (IGF-II), …; assay: as above; remark: listed apart in the source
Procedure: […]. Values are the mean±S.E.M. of three separate experiments.
as §1, with “BIAevaluation. In order to investigate the influence of ionic strength, kinetic experiments were conducted in HBS-EP running buffers containing the desired NaCl concentration. In each case, analyte samples were made up in the appropriate running buffer prior to injection.” for “BIAevaluation.”
Following purification, the binding of each mutant construct to IGF2 was assessed by SPR and compared to the wild type domain 11.

[3] = target: T1, Insulin-like Growth Factor II (IGF-II), …; assay: as above; remark: listed apart in the source
[4] = target: T1, Insulin-like Growth Factor II (IGF-II), …; assay: SPR, biotinylated IGF-II on a streptavidin chip, domain 11 protein injected as analyte at 16384 to 32 nM
Procedure: The polymorphism G1619R (l) has an apparent wild type interaction and the E1544A (d) mutation has a modest positive affect on IGF-II binding.
as §1, with “In all cases the minor component made an insignificant contribution to the overall affinity and as such only the kinetic parameters of the major binding component were used.” left out, “BIAevaluation. […]” for “BIAevaluation.”
Following purification, the binding of each mutant construct to IGF2 was assessed by SPR and compared to the wild type domain 11. […]

[5] = target: T1, Insulin-like Growth Factor II (IGF-II), …; assay: ITC
Procedure: Calorimetric measurements were performed using a VP-ITC microcalorimeter (MicroCal). All solutions were thoroughly degassed before use by stirring under vacuum. […] The sample cell contained either wild type domain 11 (7 uM) or the E1544A mutant (8 μM), also in HBS-E buffer. To correct for the heat effects of dilution and mixing, reaction heats obtained from a control experiment, in which IGF2 was injected into HBS-E, were subtracted. calorimetric data were analysed using MicroCal ORIGIN software (version 5.0) supplied with the instrument. Thermodynamic parameters were derived by fitting the binding isotherms to a single-site binding model. Values for dissociation affinity constants (KD) were determined from duplicate experiments.
In order to validate the SPR sensorgram data, ITC was used to assess the binding affinity between domain 11 and IGF-II. The affinity of the E1544A mutant was also assessed by ITC in order to confirm whether use of a second technique agreed as to the apparent increase in affinity (FIG. 6 and Table 6). Titrations were performed using […] injections of 40 μM IGF-II (after an initial 7.5 μl injection) into the reaction cell containing wild type domain 11 or the E1544A mutant. […] The two fold differences may be simply accounted for by the fidelity of both techniques.

Row | Binder | Relative Affinity [2] | Relative Affinity [3] | also measured
1 | B1 | 1 fold vs wild type domain 11 | 1 fold vs wild type domain 11 | Relative Affinity [1]: 1 fold vs wild type domain 11
2 | B2 | – | – | binding result [4]: no binding (tested: 16384 nM)
3 | B3 | 0.39 fold vs wild type domain 11 | – | –
4 | B4 | – | 3.07 fold vs wild type domain 11 | –
5 | B5 | – | 0.57 fold vs wild type domain 11 | –
6 | B6 | – | 3.87 fold vs wild type domain 11 | –
7 | B7 | – | 1.96 fold vs wild type domain 11 | Relative Affinity [1]: 1.96 fold vs wild type domain 11
8 | B8 | – | 2.02 fold vs wild type domain 11 | –
9 | B9 | – | 7.33 fold vs wild type domain 11 | –
10 | B10 | – | 0.49 fold vs wild type domain 11 | –
11 | B11 | 0.8 fold vs wild type domain 11 | – | –
12 | B12 | 2.79 fold vs wild type domain 11 | 2.79 fold vs wild type domain 11 | relative affinity increase over wild type by ITC [5]: ~2 fold vs wild type domain 11; Relative Affinity [1]: 2.79 fold vs wild type domain 11
13 | B13 | – | 1.83 fold vs wild type domain 11 | –
14 | B14 | – | 6.12 fold vs wild type domain 11 | Relative Affinity [1]: 6.12 fold vs wild type domain 11
15 | B15 | 0.9 fold vs wild type domain 11 | – | –
16 | B16 | – | 1.8 fold vs wild type domain 11 | –
17 | B17 | – | 2.43 fold vs wild type domain 11 | –
18 | B18 | 0.16 fold vs wild type domain 11 | – | –
19 | B19 | 0.11 fold vs wild type domain 11 | – | –
20 | B20 | – | 2.75 fold vs wild type domain 11 | –
21 | B21 | – | 1.72 fold vs wild type domain 11 | –
22 | B22 | – | 0.48 fold vs wild type domain 11 | –
23 | B23 | 0.61 fold vs wild type domain 11 | – | –
24 | B24 | – | 5.24 fold vs wild type domain 11 | –
25 | B25 | – | 0.88 fold vs wild type domain 11 | –
26 | B26 | 0.36 fold vs wild type domain 11 | – | –
27 | B27 | – | 1.94 fold vs wild type domain 11 | –
